Experimental data from patent US20230159643A1 (H LUNDBECK A S, published 2023).
Each block holds one binder with its values, some of them ahead of it.

Legend:
Experiment in all cases: BLI Octet 384RED (Example 8), Sortilin construct in solution
Sortilin hSORTECDBAP = target: T1, Sortilin hSORTECDBAP (human, UniProt Q99523 78-755, biotinylated on the BAP tag by co-expression of biotin ligase)
T1 construct: Soluble extracellular region (ECD, aa 1-755) with BAP tag
T1 sequence: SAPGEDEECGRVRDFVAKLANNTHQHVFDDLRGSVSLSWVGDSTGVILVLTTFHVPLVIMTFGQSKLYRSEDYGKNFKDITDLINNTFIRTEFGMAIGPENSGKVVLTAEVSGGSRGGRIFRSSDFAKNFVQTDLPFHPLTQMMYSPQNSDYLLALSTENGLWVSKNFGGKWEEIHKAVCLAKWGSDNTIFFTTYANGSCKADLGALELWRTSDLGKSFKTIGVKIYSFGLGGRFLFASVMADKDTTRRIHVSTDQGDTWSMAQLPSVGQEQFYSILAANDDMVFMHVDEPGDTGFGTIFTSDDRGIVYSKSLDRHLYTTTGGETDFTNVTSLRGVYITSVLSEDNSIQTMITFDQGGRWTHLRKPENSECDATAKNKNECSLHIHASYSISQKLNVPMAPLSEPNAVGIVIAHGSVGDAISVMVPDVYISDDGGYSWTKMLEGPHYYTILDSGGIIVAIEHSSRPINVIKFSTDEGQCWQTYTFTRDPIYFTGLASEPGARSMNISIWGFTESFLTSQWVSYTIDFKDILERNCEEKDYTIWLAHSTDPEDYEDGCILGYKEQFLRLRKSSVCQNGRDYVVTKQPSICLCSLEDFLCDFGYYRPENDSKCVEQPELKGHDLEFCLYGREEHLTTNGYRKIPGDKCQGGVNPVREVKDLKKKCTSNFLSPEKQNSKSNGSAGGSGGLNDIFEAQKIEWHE
Method: (§1) Binding kinetics of anti-Sortilin HuMab antibodies to Sortilin were determined using Octet 384RED (Fortebio, Menlo Park, USA). HuMab solutions of 2 μg/ml were made by dilution in sample diluent (ForteBio, art. No. 18-5028). Prot A sensors (ForteBio, art. no. 18-0004) were prewetted with kinetics buffer (1:10 sample diluent in PBS) for at least 600 seconds. Subsequently sensors were immobilized with HuMab solution for 600 seconds. A baseline response was obtained by dipping in kinetics buffer for 120 seconds. Association of SORTECD constructs was performed during a 1000 seconds incubation. This was followed by dissociation in kinetics buffer for 100 seconds. After dissociation, sensors were regenerated (10 mM Glycine pH 1.0) and neutralized (kinetics buffer) 3 times for 5 seconds. […] A molecular weight of 76.8 kDA was used for SORTECDHis. Data was fitted with ForteBio Analysis 6.4 software, using a global full fit.

[1] = target: T2, Sortilin SORTECDBAP_hB12390 (human/tetraodon chimera)
T2 construct: Shuffle construct
T2 chain: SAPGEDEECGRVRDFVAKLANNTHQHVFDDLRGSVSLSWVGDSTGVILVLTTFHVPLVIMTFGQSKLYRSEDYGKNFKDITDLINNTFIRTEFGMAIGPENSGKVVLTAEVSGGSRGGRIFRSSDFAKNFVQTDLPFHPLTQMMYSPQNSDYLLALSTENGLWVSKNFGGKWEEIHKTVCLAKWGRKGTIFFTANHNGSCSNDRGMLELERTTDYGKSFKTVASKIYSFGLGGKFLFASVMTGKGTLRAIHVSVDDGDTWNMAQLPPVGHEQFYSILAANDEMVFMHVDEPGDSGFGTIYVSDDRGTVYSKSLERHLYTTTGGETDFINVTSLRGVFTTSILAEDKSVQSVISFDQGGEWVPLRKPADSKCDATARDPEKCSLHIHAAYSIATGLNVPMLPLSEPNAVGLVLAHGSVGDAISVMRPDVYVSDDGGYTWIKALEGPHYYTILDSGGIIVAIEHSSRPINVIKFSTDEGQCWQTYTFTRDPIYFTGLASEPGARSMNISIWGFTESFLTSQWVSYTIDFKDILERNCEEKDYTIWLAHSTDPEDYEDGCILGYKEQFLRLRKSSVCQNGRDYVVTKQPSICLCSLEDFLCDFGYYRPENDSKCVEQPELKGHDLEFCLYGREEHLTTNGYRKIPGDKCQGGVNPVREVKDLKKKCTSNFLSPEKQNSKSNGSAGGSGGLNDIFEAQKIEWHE
Method: as §1

[2] = target: T3, Sortilin SORTECDBAP_hB45678 (human/tetraodon chimera)
T3 construct: Shuffle construct
T3 chain: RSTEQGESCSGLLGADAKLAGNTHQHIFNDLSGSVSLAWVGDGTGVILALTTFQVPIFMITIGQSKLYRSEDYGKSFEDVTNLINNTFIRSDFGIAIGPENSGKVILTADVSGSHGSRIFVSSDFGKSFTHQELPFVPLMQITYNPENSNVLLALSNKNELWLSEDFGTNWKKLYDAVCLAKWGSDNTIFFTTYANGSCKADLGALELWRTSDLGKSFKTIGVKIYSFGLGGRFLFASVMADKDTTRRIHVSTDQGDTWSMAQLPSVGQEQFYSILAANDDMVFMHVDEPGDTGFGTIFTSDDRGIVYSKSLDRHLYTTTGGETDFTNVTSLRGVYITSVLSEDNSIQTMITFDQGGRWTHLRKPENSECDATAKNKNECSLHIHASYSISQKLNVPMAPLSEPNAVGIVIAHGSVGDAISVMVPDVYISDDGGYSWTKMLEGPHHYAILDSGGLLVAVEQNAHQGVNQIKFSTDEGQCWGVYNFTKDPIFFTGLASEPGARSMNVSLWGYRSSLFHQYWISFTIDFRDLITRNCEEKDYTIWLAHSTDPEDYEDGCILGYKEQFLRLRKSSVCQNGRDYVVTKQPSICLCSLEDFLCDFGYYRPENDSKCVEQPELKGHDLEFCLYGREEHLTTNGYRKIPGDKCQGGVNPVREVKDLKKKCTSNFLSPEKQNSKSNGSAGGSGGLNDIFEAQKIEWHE
Method: as §1

- EC50 (Sortilin hSORTECDBAP): 1.14 ng/mL
- EC50 [1]: 0.59 ng/mL
- binding result [2]: no binding (tested: 10 µg/ml construct)
B1: Antibody 5E1 (antibody, V domains shown)
VH: EVHLVESGGDLVNPGGSLKLSCEASGFIFSIYGMSWVRQTPDKRLEWVAMISSGGIYTQYPDSVKGRFTISRDNAKNTLYLQMSGLKSEDTGTYHCTRHDDSWFAYWGQGTLVTVSA
VL: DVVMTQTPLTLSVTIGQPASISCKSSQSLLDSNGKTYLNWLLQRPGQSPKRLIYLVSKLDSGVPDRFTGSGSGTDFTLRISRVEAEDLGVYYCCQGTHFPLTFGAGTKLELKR
notes: Mouse anti-human Sortilin monoclonal antibody from hybridoma (BALB/c), purified on protein G; Assigned to the D Region; also called 5E1F6; Ab 5E1

- EC50 (Sortilin hSORTECDBAP): 1.56 ng/mL
- EC50 [1]: 1.1 ng/mL
- binding result [2]: no binding (tested: 10 µg/ml construct)
B2: Antibody 1F2 (antibody, V domains shown)
VH: EVQLVESGGDLVKPGGSLKLSCAASGFTFSSYGMSWVRQTPDKRLEWVAIISSGGSYTHYPDSVKGRFTISRDNAKNTLYLQMSSLKSEDTAMYYCARLCGPLCSGYWGQGTSVTVSS
VL: QAVVTQESALTTSPGETVTLTCRSSTGAVTTSNYANWVQEKPDHLFTGLIGGTNNRAPGVPARFSGSLIGDKAALTITGAQTEDEAIYFCALWYSNHFWVFGGGTKLTVLG
notes: Mouse anti-human Sortilin monoclonal antibody from hybridoma (BALB/c), purified on protein G; Assigned to the D Region; also called 1F2F4; Ab 1F2
